B1: purified HA-UBXN7 (natural protein, UniProt O94888 1-489, looked up)
chain: MAAHGGSAASSALKGLIQQFTTITGASESVGKHMLEACNNNLEMAVTMFLDGGGIAEEPSTSSASVSTVRPHTEEEVRAPIPQKQEILVEPEPLFGAPKRRRPARSIFDGFRDFQTETIRQEQELRNGGAIDKKLTTLADLFRPPIDLMHKGSFETAKECGQMQNKWLMINIQNVQDFACQCLNRDVWSNEAVKNIIREHFIFWQVYHDSEEGQRYIQFYKLGDFPYVSILDPRTGQKLVEWHQLDVSSFLDQVTGFLGEHGQLDGLSSSPPKKCARSESLIDASEDSQLEAAIRASLQETHFDSTQTKQDSRSDEESESELFSGSEEFISVCGSDEEEEVENLAKSRKSPHKDLGHRKEENRRPLTEPPVRTDPGTATNHQGLPAVDSEILEMPPEKADGVVEGIDVNGPKAQLMLRYPDGKREQITLPEQAKLLALVKHVQSKGYPNERFELLTNFPRRKLSHLDYDITLQEAGLCPQETVFVQERN
notes: May be the same construct as m1 (pCAGGS-HA); source: purified
B2: Purified recombinant UBXN7-his protein (natural protein, UniProt O94888 1-489, looked up)
chain: B1 chain
notes: The host of UBXN7-his is therefore told in two ways; also called His-tagged UBXN7; source: HEK293F, transfected, purified (Ni-NTA, Superdex200)

Columns and labels:
[1] = molecular target: T1, Purified recombinant His-N protein from E. coli (SARS-CoV-2, UniProt P0DTC9 1-419); assay: pull-down; details: both partners purified
T1 construct: SARS-CoV-2 N protein, full-length N gene of NC_045512.2 in pET-28a(+); also called prokaryotic recombinant SARS-CoV-2 N protein; not shown: 6xHis, N-terminal, kept

[2] = molecular target: T2, Fc-tagged SARS-CoV-2 N protein (SARS-CoV-2, UniProt P0DTC9 1-419); assay: pull-down; details: both partners purified
T2 construct: also called N-Fc; SARS-CoV-2 N-Fc

Binder | binding result [1] | binding result [2]
B1 | binds | –
B2 | – | binds
